How the values were obtained:
[1] = target: Cytotoxic Lymphocyte Maturation Factor (CLMF) 75 kDa heterodimer (human) (UniProt P29460); test: 125I-CLMF binding to PHA-activated lymphoblasts, supernatant at 1/2 dilution; competitor: CLMF receptor on cells
[2] = target: CLMF receptor on PHA-activated peripheral blood lymphoblasts (human); test: Scatchard plot analysis of equilibrium binding of 125I-CLMF to PHA-activated lymphoblasts
CLMF receptor on PHA-activated peripheral blood lymphoblasts (human), sequence (Q99665 24-862, chain 2 of 2, other chains not shown): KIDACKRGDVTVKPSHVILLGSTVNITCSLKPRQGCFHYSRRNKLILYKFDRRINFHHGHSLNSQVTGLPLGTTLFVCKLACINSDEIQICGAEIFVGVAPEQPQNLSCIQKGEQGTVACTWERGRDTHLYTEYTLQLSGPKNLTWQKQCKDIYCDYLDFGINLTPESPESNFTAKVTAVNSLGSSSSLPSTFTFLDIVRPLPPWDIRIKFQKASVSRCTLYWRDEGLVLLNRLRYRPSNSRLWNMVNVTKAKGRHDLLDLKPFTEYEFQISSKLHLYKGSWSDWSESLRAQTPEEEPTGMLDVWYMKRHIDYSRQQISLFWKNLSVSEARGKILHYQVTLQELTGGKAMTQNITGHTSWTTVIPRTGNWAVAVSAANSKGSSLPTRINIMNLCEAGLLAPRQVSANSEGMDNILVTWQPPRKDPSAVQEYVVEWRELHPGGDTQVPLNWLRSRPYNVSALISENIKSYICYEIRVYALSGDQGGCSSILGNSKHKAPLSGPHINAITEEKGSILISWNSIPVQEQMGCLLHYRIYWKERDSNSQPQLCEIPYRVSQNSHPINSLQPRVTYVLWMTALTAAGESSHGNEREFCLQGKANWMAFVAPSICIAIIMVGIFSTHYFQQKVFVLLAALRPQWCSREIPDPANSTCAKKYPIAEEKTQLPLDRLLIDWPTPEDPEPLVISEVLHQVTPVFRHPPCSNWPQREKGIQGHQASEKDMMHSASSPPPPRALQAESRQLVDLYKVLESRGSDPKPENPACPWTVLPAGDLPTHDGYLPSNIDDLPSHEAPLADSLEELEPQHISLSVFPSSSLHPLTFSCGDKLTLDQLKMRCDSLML

Row | Substance | % inhibition of 125I-CLMF binding to the lymphoblasts [1] [%] | Kd [2] [pM]
1 | Control monoclonal antibody | 10 | –
2 | Cytotoxic Lymphocyte Maturation Factor (CLMF) 75 kDa heterodimer (from UniProt P29460 23-328; P29459 23-219) (ligand) | – | 200
